Experimental data as given in patent US20230025129A1 (KYMAB, published 2023).

How the values were obtained:
Assay in all cases: cell-based or functional assay
[1] = target: T1, human matriptase-2 ECD protein his tag (human, UniProt Q8IU80 78-811)
T1 sequence: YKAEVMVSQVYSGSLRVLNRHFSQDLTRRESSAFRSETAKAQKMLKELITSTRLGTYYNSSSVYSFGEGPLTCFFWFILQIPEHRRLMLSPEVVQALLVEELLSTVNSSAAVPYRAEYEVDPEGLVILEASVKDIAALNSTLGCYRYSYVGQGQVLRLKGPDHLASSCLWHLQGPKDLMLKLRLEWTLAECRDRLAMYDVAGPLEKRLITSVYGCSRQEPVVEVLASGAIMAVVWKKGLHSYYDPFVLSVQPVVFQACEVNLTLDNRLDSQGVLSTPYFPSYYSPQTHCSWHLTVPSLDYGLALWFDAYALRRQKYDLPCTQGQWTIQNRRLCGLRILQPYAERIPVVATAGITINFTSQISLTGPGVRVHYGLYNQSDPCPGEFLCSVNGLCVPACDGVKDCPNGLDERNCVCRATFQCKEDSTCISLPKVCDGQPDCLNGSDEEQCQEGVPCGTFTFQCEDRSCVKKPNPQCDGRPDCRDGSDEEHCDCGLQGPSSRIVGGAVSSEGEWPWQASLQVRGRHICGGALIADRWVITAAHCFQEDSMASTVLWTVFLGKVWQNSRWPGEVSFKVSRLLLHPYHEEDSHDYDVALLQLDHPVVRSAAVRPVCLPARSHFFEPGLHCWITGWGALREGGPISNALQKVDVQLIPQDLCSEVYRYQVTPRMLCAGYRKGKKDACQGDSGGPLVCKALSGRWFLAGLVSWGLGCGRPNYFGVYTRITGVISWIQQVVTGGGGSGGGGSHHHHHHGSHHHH

[2] = target: T2, mouse matriptase-2 ECD protein his tag (mouse, UniProt Q9DBI0 80-811)
T2 sequence: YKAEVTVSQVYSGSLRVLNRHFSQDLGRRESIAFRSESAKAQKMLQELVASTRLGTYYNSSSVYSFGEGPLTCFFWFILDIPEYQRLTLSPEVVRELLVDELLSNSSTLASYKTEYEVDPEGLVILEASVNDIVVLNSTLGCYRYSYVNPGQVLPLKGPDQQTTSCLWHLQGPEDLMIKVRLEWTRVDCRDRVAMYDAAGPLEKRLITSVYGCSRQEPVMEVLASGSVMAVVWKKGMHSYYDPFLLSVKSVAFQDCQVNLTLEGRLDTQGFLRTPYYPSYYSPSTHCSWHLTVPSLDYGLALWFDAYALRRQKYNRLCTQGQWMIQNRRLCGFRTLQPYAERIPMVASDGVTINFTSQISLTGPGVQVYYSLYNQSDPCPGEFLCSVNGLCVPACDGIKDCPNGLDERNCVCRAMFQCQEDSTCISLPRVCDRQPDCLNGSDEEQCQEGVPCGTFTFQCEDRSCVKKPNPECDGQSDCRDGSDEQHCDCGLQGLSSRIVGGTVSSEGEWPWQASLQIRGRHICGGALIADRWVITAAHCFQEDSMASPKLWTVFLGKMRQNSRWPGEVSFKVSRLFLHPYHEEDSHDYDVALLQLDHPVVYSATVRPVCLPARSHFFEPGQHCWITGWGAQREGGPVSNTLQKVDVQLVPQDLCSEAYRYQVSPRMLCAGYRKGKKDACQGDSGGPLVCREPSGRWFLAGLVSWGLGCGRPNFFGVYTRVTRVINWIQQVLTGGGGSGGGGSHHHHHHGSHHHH

[3] = target: T3, human MTP-2 expressed on HEK293 cells (human, UniProt Q8IU80 1-811)
T3 sequence: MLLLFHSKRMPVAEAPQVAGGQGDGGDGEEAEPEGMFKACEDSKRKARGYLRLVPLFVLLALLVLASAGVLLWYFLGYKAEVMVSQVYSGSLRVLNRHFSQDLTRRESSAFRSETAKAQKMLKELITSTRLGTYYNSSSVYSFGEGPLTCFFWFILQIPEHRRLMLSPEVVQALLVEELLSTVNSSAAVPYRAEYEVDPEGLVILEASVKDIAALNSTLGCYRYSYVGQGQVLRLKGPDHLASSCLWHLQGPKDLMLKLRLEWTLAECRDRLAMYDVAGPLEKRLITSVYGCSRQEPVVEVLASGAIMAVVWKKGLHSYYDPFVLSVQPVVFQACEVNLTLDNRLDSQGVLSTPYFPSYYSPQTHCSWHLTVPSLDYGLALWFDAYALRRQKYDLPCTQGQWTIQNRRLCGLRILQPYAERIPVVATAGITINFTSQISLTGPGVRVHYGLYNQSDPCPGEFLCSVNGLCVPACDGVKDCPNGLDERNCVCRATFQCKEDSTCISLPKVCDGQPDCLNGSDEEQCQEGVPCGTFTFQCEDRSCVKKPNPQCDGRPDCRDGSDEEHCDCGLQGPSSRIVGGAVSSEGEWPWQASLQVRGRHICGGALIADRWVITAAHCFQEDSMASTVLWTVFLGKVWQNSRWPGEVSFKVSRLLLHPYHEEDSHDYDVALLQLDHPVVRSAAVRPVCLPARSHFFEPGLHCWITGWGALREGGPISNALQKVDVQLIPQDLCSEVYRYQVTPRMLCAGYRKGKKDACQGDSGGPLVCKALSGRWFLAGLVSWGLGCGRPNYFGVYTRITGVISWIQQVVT

B1: NORI-028 (antibody, human IgG4 S228P, lambda, V domains shown)
VH: EVQLVESGGAVVRPGGSLRLSCAISGFILDDYGMNWVRQGPGKGLEWVAGISWNGDSTRYADSVKGRFTISRDNAQNSLYLQMNSLRAEDTALYFCAREYSGDFYYYYYGMDVWGQGTTVTVSS
VL: QSALTQPPSASGSPGQSVTISCTGTSSDVGFYNFVSWYQHHPGKAPKLMIYEVSKRPSGVPDRFSGSKSANTASLTVSGLQAEDEADYYCSSYAGSNNLVFGGGTKLTVLG
Inhibition enzymatic activity human MTP2 protein (IC50) [1]: 11.8 nM
Inhibition enzymatic activity mouse MTP2 protein (IC50) [2]: 8.96 nM
Inhibition enzymatic activity human MTP2 on cells (IC50) [3]: 3.85 nM

B2: NORI-029 (antibody, human IgG4 S228P, lambda, V domains shown)
VH: EVQLVESGGGLVKPGRSLRLSCTASGFTFGDYVMSWFRQAPGKGLEWVGFIRSKPYSETTEYAASVRGRFTISRDDSKSIAYLQMNSLKTEDTAVYYCTRALYDLLTGPWMGGDYFYALDVWGQGTTVTVSS
VL: QSALTQPPSASGSPGQSVTISCTGTSSDVGDYNYVSWYQQHPGKAPKLMIYEVSKRPSGVPDRFSGSKSGNTASLTVSGLQAEDEADYYCKSYAGSNNLVFGGGTKLTVLG
Inhibition enzymatic activity human MTP2 protein (IC50) [1]: 2 nM
Inhibition enzymatic activity mouse MTP2 protein (IC50) [2]: 9.35 nM
Inhibition enzymatic activity human MTP2 on cells (IC50) [3]: 0.243 nM

B3: NORI-023 (antibody, human IgG4 S228P, lambda, V domains shown)
VH: QVQLVESGGGLVKPGGSLRLSCAASGFTFSDYYMSWIRQAPGKGLEWVSYISSSGGNRYYADSVKGRFTISRDNAKNSLYLQMNSLRAEDTAVYYCARGGLRYFDWADFWGQGTLVTVSS
VL: QSVLTQPPSVSAAPGQKVTISCSGSSSNIGNNYVSWYQQLPGTAPKLLIYDNNKRPSGIPDRFSGSKSGTSATLGIPELQTGDEADYYCGTWDNSLSAGVFGGGTKLTVLG
Inhibition enzymatic activity human MTP2 protein (IC50) [1]: 5.45 nM
Inhibition enzymatic activity mouse MTP2 protein (IC50) [2]: 2.92 nM
Inhibition enzymatic activity human MTP2 on cells (IC50) [3]: 13.2 nM

B4: NORI-022 (antibody, human IgG4 S228P, lambda, V domains shown)
VH: EVRLVESGGGLVQSGGSLRLSCAASGFTFSTYTMNWVRQAPGKGLEWVSYISIRNSIIDYADSVKGRFTISRDNAKNSLYLQMNSLRDEDTAVYYCAREEFCGTTSCYFLDYWGQGILVTVSS
VL: QSVLTQPPSVSGAPGQRVTISCTGSSSNIGAGYDVHWYQQLPGTAPKLLIYGNSNRPSGVPDRFSGSKSGTSASLAITGLQAEDEADYYCQSYDSSLSGYVFGTGTKVTVLG
Inhibition enzymatic activity human MTP2 protein (IC50) [1]: 4.36 nM
Inhibition enzymatic activity mouse MTP2 protein (IC50) [2]: 2.98 nM
Inhibition enzymatic activity human MTP2 on cells (IC50) [3]: 0.765 nM

B5: NORI-031 (antibody, human IgG4 S228P, lambda, V domains shown)
VH: QLQLQESGPGLVKPSETLSLTCTVSGGAISSSNYFWGWIRQSPGKGLEWIGSMYYTGITYYNPSLKSRVTISVDTSKNQLSLKVNSVTAADTAVYYCARQDGFRTGWFDPWGQGTLVTVSS
VL: SYELTQPPSVSVSPGQTATLTCSGDKLGDNYVCWFQQKPGQSPLLVMYQDTKRPSGIPERFSGSNSGNTATLTISGTQALDEADYYCQAWDSRTVVFGGGTKLTVLG
Inhibition enzymatic activity human MTP2 protein (IC50) [1]: 10.3 nM
Inhibition enzymatic activity mouse MTP2 protein (IC50) [2]: 27 nM
Inhibition enzymatic activity human MTP2 on cells (IC50) [3]: 3.51 nM

B6: NORI-025 (antibody, human IgG4 S228P, lambda, V domains shown)
VH: QVQLVESGGGVVQPGRSLRLSCTASGVTFTNFDMHWVRQTPGKGLEWVAVIWYDESYSYYADSVQGRFTISRDNSKNSLYLQMNSLRADDTAVYYCARGWTGSYVFDYWGQGTLVTVSS
VL: QSVLTQPPSVSEAPRQRVTISCSGSSSNIGNNAVNWYQQLPGKAPKLLISYDDLLPSGVSDRFSGSKSGTSASLAISGLQSADEADYYCAAWDDSLNAVVFGGGTKLTVLG
Inhibition enzymatic activity human MTP2 protein (IC50) [1]: 3.27 nM
Inhibition enzymatic activity mouse MTP2 protein (IC50) [2]: 6.21 nM
Inhibition enzymatic activity human MTP2 on cells (IC50) [3]: 1.88 nM

B7: NORI-030 (antibody, human IgG4 S228P, lambda, V domains shown)
VH: QVQLVESGGGVVQPGRSLRLSCAASGFTFSNFDMDWVRQAPGRGLEWVALISYDGSKKYYADSVKGRFTISRDNSKNTLYLQMNSLRGEDTAVYFCAKEGYGGYDGFDYWGQGTLVTVSS
VL: QSVLTQPPSVSEAPRQRVTISCSGSTSNIGNNAVNWYQQLPGKAPKLLISYDYVVSSGVSDRFSGSKSGTSASLAISGLQSADEADYYCSTWDDGLNGVVFGGGTKLTVLG
Inhibition enzymatic activity human MTP2 protein (IC50) [1]: 1.88 nM
Inhibition enzymatic activity mouse MTP2 protein (IC50) [2]: 6.66 nM
Inhibition enzymatic activity human MTP2 on cells (IC50) [3]: 0.227 nM

B8: NORI-024 (antibody, human IgG4 S228P, lambda, V domains shown)
VH: QVQLVQSGPELKKPGASVKVSCKASGYTFTNFGISWVRQAPGQGLEWMGWISAYSGFTNFAQKFQGRVSMTTDTSTSTVYMELKSLRSDDTAVYYCAREGYSNYEDWFDPWGQGTLVTVSS
VL: SYELTQPPSVSVSPGQTARITCSGDALPKKYAYWYQQKSGQAPVLVIYEDSKRPSGIPERISGSNSGTMATLTISGAQVEDEADYYCYSTDSSGNHRVFGGGTKLTVLG
Inhibition enzymatic activity human MTP2 protein (IC50) [1]: 10.5 nM
Inhibition enzymatic activity mouse MTP2 protein (IC50) [2]: 6.8 nM
Inhibition enzymatic activity human MTP2 on cells (IC50) [3]: 8.04 nM

B9: NORI-027 (antibody, human IgG4 S228P, lambda, V domains shown)
VH: QVQLVQSGAELKKPGASVKVSCKASGYTFNNYGISWVRQAPGQGLEWMGWISAYSGYTNIAQKFQGRVTMTTDTSTNTVYMELGSLRSDDTAVYYCAREGYSNFEDWFDPWGQGTLVTVSS
VL: SYELTQPPSVSVSPGQTARITCSGDELPKKYAYWYQQKSGQAPVLVIYEDSKRPSGIPERISGSNSGTMATLTISGAQVEDEADYYCYSTDSSGNHRVFGGGTKLTVLG
Inhibition enzymatic activity human MTP2 protein (IC50) [1]: 24.9 nM
Inhibition enzymatic activity mouse MTP2 protein (IC50) [2]: 40.8 nM
Inhibition enzymatic activity human MTP2 on cells (IC50) [3]: 16.9 nM

B10: NORI-026 (antibody, human IgG4 S228P, kappa, V domains shown)
VH: QVQLVESGGGVVQPGRSLRLSCAASGFTFSYFGMHWVRQAPGKGLEWVADISYDGSDENYADSVKGRFTISRDNSKNTLSLQMNSLRAEDTAVYYCAKETYQSLMYLEYWGQGILVTVSS
VL: AIQMTQSPSSLSASVGDRVTITCRASQDIRNDLGWYQQKPGKAPKLLIYTAPSLQSGVPSRFSGSGSGTDFTLTIGSLQPEDFATYYCLQDYNYPWTFGQGTKVEIKR
Inhibition enzymatic activity human MTP2 protein (IC50) [1]: 5.11 nM
Inhibition enzymatic activity mouse MTP2 protein (IC50) [2]: 6.22 nM
Inhibition enzymatic activity human MTP2 on cells (IC50) [3]: 0.817 nM
